From US20200024330A1

Assays:
Assay in all cases: cell-based or functional assay
[1] = target: HIV-1 Env of isolate MGRM-Chronic-B-024 (HIV-1)
[2] = target: HIV-1 Env of isolate MGRM-Chronic-B-010 (HIV-1)
[3] = target: HIV-1 Env of isolate MGRM-G-016 (HIV-1)
[4] = target: HIV-1 Env of isolate MGRM-G-014 (HIV-1)
[5] = target: HIV-1 Env of isolate MGRM-G-013 (HIV-1)
[6] = target: HIV-1 Env of isolate MGRM-G-017 (HIV-1)
[7] = target: HIV-1 Env of isolate MGRM-G-006 (HIV-1)
[8] = target: HIV-1 Env of isolate MGRM-Chronic-B-012 (HIV-1)
[9] = target: HIV-1 Env of isolate MGRM-Chronic-B-011 (HIV-1)
[10] = target: HIV-1 Env of isolate MGRM-Chronic-B-023 (HIV-1)
[11] = target: HIV-1 Env of isolate MGRM-D-026 (subtype D), on pseudovirus (HIV-1)
[12] = target: HIV-1 Env of isolate MGRM-G-027 (HIV-1)
[13] = target: HIV-1 Env of isolate MGRM-Chronic-B-018 (HIV-1)
[14] = target: HIV-1 Env of isolate MGRM-G-009 (HIV-1)
[15] = target: HIV-1 Env of isolate MGRM-G-011 (HIV-1)
[16] = target: aMLV envelope (negative control pseudovirus)
[17] = target: HIV-1 Env of isolate MGRM-G-019 (HIV-1)
[18] = target: HIV-1 Env of isolate MGRM-G-004 (HIV-1)
[19] = target: HIV-1 Env of isolate MGRM-Chronic-B-017 (HIV-1)
[20] = target: HIV-1 Env of isolate JRFL (HIV-1)
[21] = target: HIV-1 Env of isolate MGRM-G-001 (HIV-1)
[22] = target: HIV-1 Env of isolate MGRM-G-015 (HIV-1)
[23] = target: HIV-1 Env of isolate MGRM-Chronic-B-020 (HIV-1)
[24] = target: HIV-1 NL43 envelope glycoprotein (Env) on pseudovirus (HIV-1)
[25] = target: HIV-1 Env of isolate MGRM-AE-004 (HIV-1)
[26] = target: HIV-1 Env of isolate MGRM-AE-008 (HIV-1)
[27] = target: HIV-1 92UG024 envelope glycoprotein (Env) on pseudovirus (HIV-1)
[28] = target: HIV-1 Env of isolate MGRM-AE-005 (HIV-1)
[29] = target: HIV-1 92RW020 envelope glycoprotein (Env) on pseudovirus (HIV-1)
[30] = target: HIV-1 Env of isolate MGRM-AE-007 (HIV-1)
[31] = target: HIV-1 92BR020 envelope glycoprotein (Env) on pseudovirus (HIV-1)
[32] = target: HIV-1 Env of isolate MGRM-F1-010 (subtype F) (HIV-1)
[33] = target: HIV-1 92TH021 envelope glycoprotein (Env) on pseudovirus (HIV-1)
[34] = target: HIV-1 Env of isolate MG RM-D-028 (subtype D) (HIV-1)
[35] = target: HIV-1 Env of isolate MGRM-AE-006 (HIV-1)

5114_A19 (PGT-128) (antibody) gave an IC50 [1] of over 50 µg/mL, an IC50 [2] of 0.004 µg/mL and an IC50, pseudovirus neutralization [3] of over 50 µg/mL. The IC50, pseudovirus neutralization [4] was 0.004 µg/mL, the IC50, pseudovirus neutralization [5] was 0.995 µg/mL and the IC50, pseudovirus neutralization [6] was 0.319 µg/mL. For the same substance, the IC50, pseudovirus neutralization [7] was over 50 µg/mL, the IC50 [8] was 0.026 µg/mL and the IC50 [9] was 0.02 µg/mL. It also gave an IC50 [10] of over 50 µg/mL, an IC50, pseudovirus neutralization [11] of over 50 µg/mL and an IC50, pseudovirus neutralization [12] of 0.313 µg/mL. The IC50 [13] was 0.02 µg/mL, the IC50, pseudovirus neutralization [14] was over 50 µg/mL and the IC50, pseudovirus neutralization [15] was 8.21 µg/mL. It also gave an IC50, pseudovirus neutralization [16] of over 50 µg/mL, an IC50, pseudovirus neutralization [17] of 0.01 µg/mL and an IC50, pseudovirus neutralization [18] of over 50 µg/mL. It also gave an IC50 [19] of over 50 µg/mL, an IC50 [20] of 0.007 µg/mL and an IC50, pseudovirus neutralization [21] of 0.019 µg/mL. The IC50, pseudovirus neutralization [22] was over 50 µg/mL and the IC50 [23] was 0.007 µg/mL.

5136_H01 (PGT-131) (antibody) showed an IC50 [1] of over 50 µg/mL, an IC50 [2] of 0.016 µg/mL and an IC50, pseudovirus neutralization [3] of over 50 µg/mL. The IC50, pseudovirus neutralization [4] was 4.31 µg/mL, the IC50, pseudovirus neutralization [5] was over 50 µg/mL and the IC50, pseudovirus neutralization [6] was over 50 µg/mL. The IC50, pseudovirus neutralization [7] was over 50 µg/mL, the IC50 [8] was 15.7 µg/mL and the IC50 [9] was 6.47 µg/mL. The IC50 [10] was over 50 µg/mL, the IC50, pseudovirus neutralization [11] was over 50 µg/mL and the IC50, pseudovirus neutralization [12] was 2.9 µg/mL. It also gave an IC50 [13] of over 50 µg/mL, an IC50, pseudovirus neutralization [14] of over 50 µg/mL and an IC50, pseudovirus neutralization [15] of over 50 µg/mL. For the same substance, the IC50, pseudovirus neutralization [16] was over 50 µg/mL, the IC50, pseudovirus neutralization [17] was over 50 µg/mL and the IC50, pseudovirus neutralization [18] was over 50 µg/mL. For the same substance, the IC50 [19] was over 50 µg/mL, the IC50 [20] was 0.454 µg/mL and the IC50, pseudovirus neutralization [21] was 0.404 µg/mL. The IC50, pseudovirus neutralization [22] was over 50 µg/mL and the IC50 [23] was 0.053 µg/mL.

In the case of 4858_P08 (PGT-123) (antibody), the IC50 (ug/ml), neutralizing activity [24] is reported as over 10 µg/mL, the IC50, pseudovirus neutralization [24] is reported as over 10 µg/mL and the IC80, pseudovirus neutralization [24] is reported as over 10 µg/mL. The IC90 (pseudovirus neutralization) [24] was over 10 µg/mL, the IC95, pseudovirus neutralization [24] was over 10 µg/mL and the IC50, pseudovirus neutralization [3] was over 50 µg/mL. For the same substance, the neutralization IC50 [25] was over 50 µg/mL, the neutralization IC50 [26] was over 50 µg/mL and the IC50, pseudovirus neutralization [4] was 0.005 µg/mL. It also gave an IC50 (ug/ml), neutralizing activity [27] of over 10 µg/mL, an IC50, pseudovirus neutralization [27] of over 10 µg/mL and an IC80, pseudovirus neutralization [27] of over 10 µg/mL. The IC90 (pseudovirus neutralization) [27] was over 10 µg/mL, the IC95, pseudovirus neutralization [27] was over 10 µg/mL and the IC50, pseudovirus neutralization [5] was 3.97 µg/mL. For the same substance, the IC50, pseudovirus neutralization [6] was 0.026 µg/mL, the IC50, pseudovirus neutralization [7] was over 50 µg/mL and the neutralization IC50 [28] was over 50 µg/mL. The IC50 (ug/ml), neutralizing activity [29] was 0.0038 µg/mL, the IC50, pseudovirus neutralization [29] was 0.0038 µg/mL and the IC80, pseudovirus neutralization [29] was 0.0106 µg/mL. For the same substance, the IC90 (pseudovirus neutralization) [29] was 0.0194 µg/mL, the IC95, pseudovirus neutralization [29] was 0.0343 µg/mL and the neutralization IC50 [30] was over 50 µg/mL. The IC50 (ug/ml), neutralizing activity [31] was 0.013 µg/mL, the IC50, pseudovirus neutralization [31] was 0.013 µg/mL and the IC80, pseudovirus neutralization [31] was 0.039 µg/mL. The IC90 (pseudovirus neutralization) [31] was 0.0741 µg/mL, the IC95, pseudovirus neutralization [31] was 0.134 µg/mL and the IC50, pseudovirus neutralization [12] was 0.182 µg/mL. The IC50, pseudovirus neutralization [14] was 33.5 µg/mL, the IC50, pseudovirus neutralization [15] was 14.9 µg/mL and the IC50, pseudovirus neutralization [16] was over 50 µg/mL. The IC50, pseudovirus neutralization [17] was 0.008 µg/mL, the IC50 (µg/mL), pseudovirus neutralization [32] was 0.016 µg/mL and the IC50, pseudovirus neutralization [18] was 0.181 µg/mL. The IC50 (ug/ml), neutralizing activity [33] was over 10 µg/mL, the IC50, pseudovirus neutralization [33] was over 10 µg/mL and the IC80, pseudovirus neutralization [33] was over 10 µg/mL. The IC90 (pseudovirus neutralization) [33] was over 10 µg/mL, the IC95, pseudovirus neutralization [33] was over 10 µg/mL and the IC50 (µg/mL), pseudovirus neutralization [34] was 0.132 µg/mL. It also gave an IC50, pseudovirus neutralization [21] of 0.009 µg/mL, a neutralization IC50 [35] of over 50 µg/mL and an IC50, pseudovirus neutralization [22] of over 50 µg/mL.
